This assay has as its target Protein A (coating of 10 μm silica microparticles) (UniProt P38507). The assay is described as follows: flow cytometry of beads; protein A coated on 10 μm silica particles, incubated with PE Mouse Anti-Human CD9 for 1 h, washed twice by centrifugation (200× g, 1 min); FACS Canto II, PE excitation 488 nm, filter 585/42; unlabeled proteinA-Silica particles used to set the gate. On the technique in general: Flow cytometry measures light scatter and fluorescence of single cells or particles in a stream.

The substance “BD PE Mouse Anti-Human CD9 (Catalogue #341647, BD Biosciences) (antibody)” yielded a percent of beads positive for PE of 93%.

These data come from paper PMC12756313.
